Source: paper PMC3201873

Biological target: B′ protein (GyrB C-terminal domain) of M. tuberculosis DNA gyrase (M. tuberculosis)
Experiment: […]) in 50 mM Tris–HCl

Substance: B′ protein (GyrB C-terminal domain) of M. tuberculosis DNA gyrase (domain or fragment)
- Kd: < 1000 nM
